US20250320295A1 (INHIBRX BIOSCIENCES, published 2025)

Biological target: T1, Human CD8a (human, UniProt P01732 22-235)
T1 construct: also called CD8α; human CD8a-FL
Experiment: flow cytometry, HEK293F cells transfected with human CD8a (citrine+ gate)
Method: Binding of polypeptides comprising a humanized CD8a-binding VHH domain, an Fc region, and, in certain polypeptides, a mutated, attenuated IL-2 fused to the C-terminus of the Fc region, was assessed by flow cytometry on HEK293F cells transiently transfected with a plasmid encoding human CD8α or CD8b chains. […] Complexes or polypeptides that are not labeled “KiH” form homodimers under physiologic conditions. The transfected cells were plated in a 96-well plate at 50,000 cells per well in FACS buffer (PBS, 1% BSA, 0.1% NaN₃, pH 7.4). Test polypeptides were then diluted to 2× the final concentration of 500 nM, and a 6-fold serial dilution was made. FACS buffer with no polypeptide was used as a secondary antibody-only control. Test polypeptides were added to an equal volume of cells, and assay plates were incubated for 30 minutes at 4° C. After washing twice with 150 μL of FACS buffer per well, the cells were resuspended in FACS buffer with a fluorescently-labeled anti-human Fc antibody diluted 1:1000 to detect CD8 binding. Assay plates were incubated at 4° C. for 30 minutes. After one additional wash with 150 μL of FACS buffer, polypeptide bound to CD8 was detected by flow cytometry on cells positive for the transfection marker citrine. Binding was measured on these cell populations as mean fluorescence intensity (MFI) at 647 nm. Flow cytometric detection was performed on an IntelliCyt iQue Screener Plus. The data were plotted and analyzed using GraphPad Prism analysis software.

T1 sequence (P01732 22-235): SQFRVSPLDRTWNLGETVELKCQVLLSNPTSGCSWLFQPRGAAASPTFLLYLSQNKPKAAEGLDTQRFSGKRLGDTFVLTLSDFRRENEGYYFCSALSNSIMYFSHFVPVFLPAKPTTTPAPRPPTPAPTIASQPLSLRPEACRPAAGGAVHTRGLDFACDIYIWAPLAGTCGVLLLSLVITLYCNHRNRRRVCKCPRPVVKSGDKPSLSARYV

| Binder | Kd | Bmax (MFI) |
| --- | --- | --- |
| hzB7v21-xELL-P329G-KiH Fc-IL-2 mutant (Fc fusion, Knob-in-hole heterodimer: VHH on the N-terminus of each Fc, mutant IL-2 only on the knob Fc; not shown: mutant, attenuated IL-2 fused to the C-terminus of the knob Fc) chain 1: QVQLVQSGGGEVQPGGSLRLSCAASGFTFDDYAMSWVRQAPGKGLEWVSTITWDAEGTDYAESVKGRFTISRDNAKNTVYLQMSSLRAEDTAVYYCAKGSPELQYDTWGQGTLVTVKPDKTHTCPPCPAPGGPSVFLFPPKPKDTLMISRTPEVTCVVVDVSHEDPEVKFNWYVDGVEVHNAKTKPREEQYNSTYRVVSVLTVLHQDWLNGKEYKCKVSNKALGAPIEKTISKAKGQPREPQVCTLPPSRDELTKNQVSLSCAVKGFYPSDIAVEWESNGQPENNYKTTPPVLDSDGSFFLVSKLTVDKSRWQQGNVFSCSVMHEALHNRYTQKSLSLSPG chain 2: QVQLVQSGGGEVQPGGSLRLSCAASGFTFDDYAMSWVRQAPGKGLEWVSTITWDAEGTDYAESVKGRFTISRDNAKNTVYLQMSSLRAEDTAVYYCAKGSPELQYDTWGQGTLVTVKPDKTHTCPPCPAPGGPSVFLFPPKPKDTLMISRTPEVTCVVVDVSHEDPEVKFNWYVDGVEVHNAKTKPREEQYNSTYRVVSVLTVLHQDWLNGKEYKCKVSNKALGAPIEKTISKAKGQPREPQVYTLPPCRDELTKNQVSLWCLVKGFYPSDIAVEWESNGQPENNYKTTPPVLDSDGSFFLYSKLTVDKSRWQQGNVFSCSVMHEALHNHYTQKSLSLSPG | 5.23 nM | – |
| hzB7v25-xELL-P329G-KiH Fc-IL-2 mutant (Fc fusion, Knob-in-hole heterodimer: VHH on the N-terminus of each Fc, mutant IL-2 only on the knob Fc; not shown: mutant, attenuated IL-2 fused to the C-terminus of the knob Fc) chain 1: QVQLVQSGGGEVQPGGSLRLSCAASGFTFDDYAMSWVRQAPGKGLEWVSTITWSAEGTDYAESVKGRFTISRDNAKNTVYLQMSSLRAEDTAVYYCAKGSPELQYDTWGQGTLVTVKPDKTHTCPPCPAPGGPSVFLFPPKPKDTLMISRTPEVTCVVVDVSHEDPEVKFNWYVDGVEVHNAKTKPREEQYNSTYRVVSVLTVLHQDWLNGKEYKCKVSNKALGAPIEKTISKAKGQPREPQVCTLPPSRDELTKNQVSLSCAVKGFYPSDIAVEWESNGQPENNYKTTPPVLDSDGSFFLVSKLTVDKSRWQQGNVFSCSVMHEALHNRYTQKSLSLSPG chain 2: QVQLVQSGGGEVQPGGSLRLSCAASGFTFDDYAMSWVRQAPGKGLEWVSTITWSAEGTDYAESVKGRFTISRDNAKNTVYLQMSSLRAEDTAVYYCAKGSPELQYDTWGQGTLVTVKPDKTHTCPPCPAPGGPSVFLFPPKPKDTLMISRTPEVTCVVVDVSHEDPEVKFNWYVDGVEVHNAKTKPREEQYNSTYRVVSVLTVLHQDWLNGKEYKCKVSNKALGAPIEKTISKAKGQPREPQVYTLPPCRDELTKNQVSLWCLVKGFYPSDIAVEWESNGQPENNYKTTPPVLDSDGSFFLYSKLTVDKSRWQQGNVFSCSVMHEALHNHYTQKSLSLSPG | 3.28 nM | 1.45e+07 MFI |
| hzB7v26-xELL-P329G-KiH Fc-IL-2 mutant (Fc fusion, Knob-in-hole heterodimer: VHH on the N-terminus of each Fc, mutant IL-2 only on the knob Fc; not shown: mutant, attenuated IL-2 fused to the C-terminus of the knob Fc) chain 1: QVQLVQSGGGEVQPGGSLRLSCAASGFTFDDYAMSWVRQAPGKGLEWVSTITWDAGGTDYAESVKGRFTISRDNAKNTVYLQMSSLRAEDTAVYYCAKGSPELQYDTWGQGTLVTVKPDKTHTCPPCPAPGGPSVFLFPPKPKDTLMISRTPEVTCVVVDVSHEDPEVKFNWYVDGVEVHNAKTKPREEQYNSTYRVVSVLTVLHQDWLNGKEYKCKVSNKALGAPIEKTISKAKGQPREPQVCTLPPSRDELTKNQVSLSCAVKGFYPSDIAVEWESNGQPENNYKTTPPVLDSDGSFFLVSKLTVDKSRWQQGNVFSCSVMHEALHNRYTQKSLSLSPG chain 2: QVQLVQSGGGEVQPGGSLRLSCAASGFTFDDYAMSWVRQAPGKGLEWVSTITWDAGGTDYAESVKGRFTISRDNAKNTVYLQMSSLRAEDTAVYYCAKGSPELQYDTWGQGTLVTVKPDKTHTCPPCPAPGGPSVFLFPPKPKDTLMISRTPEVTCVVVDVSHEDPEVKFNWYVDGVEVHNAKTKPREEQYNSTYRVVSVLTVLHQDWLNGKEYKCKVSNKALGAPIEKTISKAKGQPREPQVYTLPPCRDELTKNQVSLWCLVKGFYPSDIAVEWESNGQPENNYKTTPPVLDSDGSFFLYSKLTVDKSRWQQGNVFSCSVMHEALHNHYTQKSLSLSPG | 4.55 nM | 1.52e+07 MFI |
| hzB7v27-xELL-P329G-KiH Fc-IL-2 mutant (Fc fusion, Knob-in-hole heterodimer: VHH on the N-terminus of each Fc, mutant IL-2 only on the knob Fc; not shown: mutant, attenuated IL-2 fused to the C-terminus of the knob Fc) chain 1: QVQLVQSGGGEVQPGGSLRLSCAASGFTFDDYAMSWVRQAPGKGLEWVSTITWDAEGTYYAESVKGRFTISRDNAKNTVYLQMSSLRAEDTAVYYCAKGSPELQYDTWGQGTLVTVKPDKTHTCPPCPAPGGPSVFLFPPKPKDTLMISRTPEVTCVVVDVSHEDPEVKFNWYVDGVEVHNAKTKPREEQYNSTYRVVSVLTVLHQDWLNGKEYKCKVSNKALGAPIEKTISKAKGQPREPQVCTLPPSRDELTKNQVSLSCAVKGFYPSDIAVEWESNGQPENNYKTTPPVLDSDGSFFLVSKLTVDKSRWQQGNVFSCSVMHEALHNRYTQKSLSLSPG chain 2: QVQLVQSGGGEVQPGGSLRLSCAASGFTFDDYAMSWVRQAPGKGLEWVSTITWDAEGTYYAESVKGRFTISRDNAKNTVYLQMSSLRAEDTAVYYCAKGSPELQYDTWGQGTLVTVKPDKTHTCPPCPAPGGPSVFLFPPKPKDTLMISRTPEVTCVVVDVSHEDPEVKFNWYVDGVEVHNAKTKPREEQYNSTYRVVSVLTVLHQDWLNGKEYKCKVSNKALGAPIEKTISKAKGQPREPQVYTLPPCRDELTKNQVSLWCLVKGFYPSDIAVEWESNGQPENNYKTTPPVLDSDGSFFLYSKLTVDKSRWQQGNVFSCSVMHEALHNHYTQKSLSLSPG | 3.18 nM | 1.45e+07 MFI |
| hzB7v23-xELL-P329G-KiH Fc-IL-2 mutant (Fc fusion, Knob-in-hole heterodimer: VHH on the N-terminus of each Fc, mutant IL-2 only on the knob Fc; not shown: mutant, attenuated IL-2 fused to the C-terminus of the knob Fc) chain 1: QVQLVQSGGGEVQPGGSLRLSCAASGFTFDSYAMSWVRQAPGKGLEWVSTITWDAEGTDYAESVKGRFTISRDNAKNTVYLQMSSLRAEDTAVYYCAKGSPELQYDTWGQGTLVTVKPDKTHTCPPCPAPGGPSVFLFPPKPKDTLMISRTPEVTCVVVDVSHEDPEVKFNWYVDGVEVHNAKTKPREEQYNSTYRVVSVLTVLHQDWLNGKEYKCKVSNKALGAPIEKTISKAKGQPREPQVCTLPPSRDELTKNQVSLSCAVKGFYPSDIAVEWESNGQPENNYKTTPPVLDSDGSFFLVSKLTVDKSRWQQGNVFSCSVMHEALHNRYTQKSLSLSPG chain 2: QVQLVQSGGGEVQPGGSLRLSCAASGFTFDSYAMSWVRQAPGKGLEWVSTITWDAEGTDYAESVKGRFTISRDNAKNTVYLQMSSLRAEDTAVYYCAKGSPELQYDTWGQGTLVTVKPDKTHTCPPCPAPGGPSVFLFPPKPKDTLMISRTPEVTCVVVDVSHEDPEVKFNWYVDGVEVHNAKTKPREEQYNSTYRVVSVLTVLHQDWLNGKEYKCKVSNKALGAPIEKTISKAKGQPREPQVYTLPPCRDELTKNQVSLWCLVKGFYPSDIAVEWESNGQPENNYKTTPPVLDSDGSFFLYSKLTVDKSRWQQGNVFSCSVMHEALHNHYTQKSLSLSPG | 3.9 nM | 1.43e+07 MFI |
| hzB7v20-xELL-P329G-KiH Fc-IL-2 mutant (Fc fusion, Knob-in-hole heterodimer: VHH on the N-terminus of each Fc, mutant IL-2 only on the knob Fc; not shown: mutant, attenuated IL-2 fused to the C-terminus of the knob Fc) chain 1: EVQLVQSGGGEVQPGGSLRLSCAASGFTFDDYAMSWVRQAPGKGLEWVSTITWDAEGTDYAESVKGRFTISRDNAKNTVYLQMSSLRAEDTAVYYCAKGSPELQYDTWGQGTLVTVKPDKTHTCPPCPAPGGPSVFLFPPKPKDTLMISRTPEVTCVVVDVSHEDPEVKFNWYVDGVEVHNAKTKPREEQYNSTYRVVSVLTVLHQDWLNGKEYKCKVSNKALGAPIEKTISKAKGQPREPQVCTLPPSRDELTKNQVSLSCAVKGFYPSDIAVEWESNGQPENNYKTTPPVLDSDGSFFLVSKLTVDKSRWQQGNVFSCSVMHEALHNRYTQKSLSLSPG chain 2: EVQLVQSGGGEVQPGGSLRLSCAASGFTFDDYAMSWVRQAPGKGLEWVSTITWDAEGTDYAESVKGRFTISRDNAKNTVYLQMSSLRAEDTAVYYCAKGSPELQYDTWGQGTLVTVKPDKTHTCPPCPAPGGPSVFLFPPKPKDTLMISRTPEVTCVVVDVSHEDPEVKFNWYVDGVEVHNAKTKPREEQYNSTYRVVSVLTVLHQDWLNGKEYKCKVSNKALGAPIEKTISKAKGQPREPQVYTLPPCRDELTKNQVSLWCLVKGFYPSDIAVEWESNGQPENNYKTTPPVLDSDGSFFLYSKLTVDKSRWQQGNVFSCSVMHEALHNHYTQKSLSLSPG | 4.48 nM | – |
| hzB7v24-xELL-P329G-KiH Fc-IL-2 mutant (Fc fusion, Knob-in-hole heterodimer: VHH on the N-terminus of each Fc, mutant IL-2 only on the knob Fc; not shown: mutant, attenuated IL-2 fused to the C-terminus of the knob Fc) chain 1: QVQLVQSGGGEVQPGGSLRLSCAASGFTFSSYAMSWVRQAPGKGLEWVSTITWDAEGTDYAESVKGRFTISRDNAKNTVYLQMSSLRAEDTAVYYCAKGSPELQYDTWGQGTLVTVKPDKTHTCPPCPAPGGPSVFLFPPKPKDTLMISRTPEVTCVVVDVSHEDPEVKFNWYVDGVEVHNAKTKPREEQYNSTYRVVSVLTVLHQDWLNGKEYKCKVSNKALGAPIEKTISKAKGQPREPQVCTLPPSRDELTKNQVSLSCAVKGFYPSDIAVEWESNGQPENNYKTTPPVLDSDGSFFLVSKLTVDKSRWQQGNVFSCSVMHEALHNRYTQKSLSLSPG chain 2: QVQLVQSGGGEVQPGGSLRLSCAASGFTFSSYAMSWVRQAPGKGLEWVSTITWDAEGTDYAESVKGRFTISRDNAKNTVYLQMSSLRAEDTAVYYCAKGSPELQYDTWGQGTLVTVKPDKTHTCPPCPAPGGPSVFLFPPKPKDTLMISRTPEVTCVVVDVSHEDPEVKFNWYVDGVEVHNAKTKPREEQYNSTYRVVSVLTVLHQDWLNGKEYKCKVSNKALGAPIEKTISKAKGQPREPQVYTLPPCRDELTKNQVSLWCLVKGFYPSDIAVEWESNGQPENNYKTTPPVLDSDGSFFLYSKLTVDKSRWQQGNVFSCSVMHEALHNHYTQKSLSLSPG | 6.54 nM | 1.28e+07 MFI |
| hzB7v19-xELL-P329G-KiH Fc-IL-2 mutant (Fc fusion, Knob-in-hole heterodimer: VHH on the N-terminus of each Fc, mutant IL-2 only on the knob Fc; not shown: mutant, attenuated IL-2 fused to the C-terminus of the knob Fc) chain 1: QVQLVESGGGEVQPGGSLRLSCAASGFTFDDYAMSWVRQAPGKGLEWVSTITWDAEGTDYAESVKGRFTISRDNAKNTVYLQMSSLRAEDTAVYYCAKGSPELQYDTWGQGTLVTVKPDKTHTCPPCPAPGGPSVFLFPPKPKDTLMISRTPEVTCVVVDVSHEDPEVKFNWYVDGVEVHNAKTKPREEQYNSTYRVVSVLTVLHQDWLNGKEYKCKVSNKALGAPIEKTISKAKGQPREPQVCTLPPSRDELTKNQVSLSCAVKGFYPSDIAVEWESNGQPENNYKTTPPVLDSDGSFFLVSKLTVDKSRWQQGNVFSCSVMHEALHNRYTQKSLSLSPG chain 2: QVQLVESGGGEVQPGGSLRLSCAASGFTFDDYAMSWVRQAPGKGLEWVSTITWDAEGTDYAESVKGRFTISRDNAKNTVYLQMSSLRAEDTAVYYCAKGSPELQYDTWGQGTLVTVKPDKTHTCPPCPAPGGPSVFLFPPKPKDTLMISRTPEVTCVVVDVSHEDPEVKFNWYVDGVEVHNAKTKPREEQYNSTYRVVSVLTVLHQDWLNGKEYKCKVSNKALGAPIEKTISKAKGQPREPQVYTLPPCRDELTKNQVSLWCLVKGFYPSDIAVEWESNGQPENNYKTTPPVLDSDGSFFLYSKLTVDKSRWQQGNVFSCSVMHEALHNHYTQKSLSLSPG | 7.5 nM | – |
